According to paper PMC10786891, “Massively parallel profiling of RNA-targeting CRISPR-Cas13d”:
Where a chain is given by its changes, count along the chain named. Names may count otherwise.

T1: EsCas13d, nuclease-dead (Eubacterium siraeum, UniProt B0MS50, R295A;H300A;R849A;H854A)
T1 sequence: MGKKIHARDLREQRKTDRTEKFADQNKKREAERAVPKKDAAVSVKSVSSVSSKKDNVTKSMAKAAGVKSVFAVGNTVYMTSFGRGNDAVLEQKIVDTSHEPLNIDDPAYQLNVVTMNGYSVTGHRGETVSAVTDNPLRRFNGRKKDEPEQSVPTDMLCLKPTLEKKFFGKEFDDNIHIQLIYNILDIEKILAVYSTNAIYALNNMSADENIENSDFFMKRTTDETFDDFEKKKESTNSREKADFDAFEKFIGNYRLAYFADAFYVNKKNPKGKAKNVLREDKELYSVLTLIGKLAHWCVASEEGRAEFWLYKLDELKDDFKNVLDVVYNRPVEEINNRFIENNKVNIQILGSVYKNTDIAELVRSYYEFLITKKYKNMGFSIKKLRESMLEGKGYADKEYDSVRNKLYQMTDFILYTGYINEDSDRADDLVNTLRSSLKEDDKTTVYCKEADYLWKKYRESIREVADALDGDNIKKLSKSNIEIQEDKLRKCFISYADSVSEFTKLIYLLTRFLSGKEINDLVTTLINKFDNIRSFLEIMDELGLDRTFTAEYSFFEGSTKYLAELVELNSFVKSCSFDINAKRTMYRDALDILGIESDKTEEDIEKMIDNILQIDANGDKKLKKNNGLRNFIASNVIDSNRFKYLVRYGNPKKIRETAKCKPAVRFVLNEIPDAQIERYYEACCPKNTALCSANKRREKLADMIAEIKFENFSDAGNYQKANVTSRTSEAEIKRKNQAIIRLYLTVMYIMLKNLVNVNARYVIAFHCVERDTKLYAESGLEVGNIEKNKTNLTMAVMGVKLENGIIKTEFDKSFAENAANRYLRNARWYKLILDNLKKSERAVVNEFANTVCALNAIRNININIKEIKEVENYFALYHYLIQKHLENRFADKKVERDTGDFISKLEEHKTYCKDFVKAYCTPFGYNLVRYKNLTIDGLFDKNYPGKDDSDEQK

B1: target 1 insC 3' of 20,insC 3' of 1 (mixed)
RNA 1: CACCCGUGCAAAAAUGCAGGGGUCUAAAACUGAGCGGAUAACCUCUCUAUGG
RNA 2: GGGAAUGGAUCCACAUCUACGAAUUCGUACCACUAGAGAGGUUAUCCGCUCACCCGAGAUCGGAAGAGCACACGU
B2: target 1 insU 3' of 15,insU 3' of 13 (mixed)
RNA 1: B1 RNA 1
RNA 2: GGGAAUGGAUCCACAUCUACGAAUUCGUACCAUAGAGUAGUGUUAUCCGCUCACCGAGAUCGGAAGAGCACACGU
B3: target 1 G5U,C7G (mixed)
RNA 1: B1 RNA 1
RNA 2: GGGAAUGGAUCCACAUCUACGAAUUCGUACCAUAGAGAGGUUAUGCUCUCACCGAGAUCGGAAGAGCACACGU
B4: target 1 insA 3' of 21,insG 3' of 19 (mixed)
RNA 1: B1 RNA 1
RNA 2: B2 RNA 2 with U33A, A34U, U38A, A39G, G40A, U41G
B5: target 1 insG 3' of 18,insC 3' of 12 (mixed)
RNA 1: B1 RNA 1
RNA 2: B2 RNA 2 with A36G, G37A, U38G, U41G, G42C
B6: target 1 insG 3' of 6,insC 3' of 3 (mixed)
RNA 1: B1 RNA 1
RNA 2: GGGAAUGGAUCCACAUCUACGAAUUCGUACCAUAGAGAGGUUAUCCGGCUCCACCGAGAUCGGAAGAGCACACGU
B7: target 1 insG 3' of 19,insU 3' of 5 (mixed)
RNA 1: B1 RNA 1
RNA 2: B1 RNA 2 with C33U, U34G, C49U, U50C, C51U, A52C, C53A
B8: target 1 insG 3' of 6,insA 3' of 5 (mixed)
RNA 1: B1 RNA 1
RNA 2: B6 RNA 2 with C49A, U50C, C51U
B9: target 1 C6U,G12A (mixed)
RNA 1: B1 RNA 1
RNA 2: B3 RNA 2 with G40A, G45C, C46U, U47G
B10: target 1 C4G,C6G (mixed)
RNA 1: B1 RNA 1
RNA 2: B3 RNA 2 with G45C, C46G, U47G, C48G
B11: target 1 insA 3' of 8,insG 3' of 1 (mixed)
RNA 1: B1 RNA 1
RNA 2: B6 RNA 2 with C45A, G47C, C52A, A53G
B12: target 1 U10C,A16G (mixed)
RNA 1: B1 RNA 1
RNA 2: B3 RNA 2 with A36G, U42C, G45C, U47G
B13: target 1 insC 3' of 14,insG 3' of 3 (mixed)
RNA 1: B1 RNA 1
RNA 2: B6 RNA 2 with G39C, U41G, A43U, U44A, C45U, G47C, C51G
B14: target 1 insG 3' of 18,insU 3' of 12 (mixed)
RNA 1: B1 RNA 1
RNA 2: B2 RNA 2 with A36G, G37A, U38G, U41G, G42U
B15: target 1 insA 3' of 12 (mixed)
RNA 1: B1 RNA 1
RNA 2: GGGAAUGGAUCCACAUCUACGAAUUCGUACCAUAGAGAGGAUUAUCCGCUCACCGAGAUCGGAAGAGCACACGU
B16: target 1 insU 3' of 21,insG 3' of 6 (mixed)
RNA 1: B1 RNA 1
RNA 2: B1 RNA 2 with A32U, C33A, C49G, U50C, C51U, A52C, C53A
B17: target 1 insU 3' of 7,insU 3' of 7 (mixed)
RNA 1: B1 RNA 1
RNA 2: B6 RNA 2 with C46U, G47U, G48C, C49G, U50C, C51U
B18: target 1 del4,del14 (mixed)
RNA 1: B1 RNA 1
RNA 2: GGGAAUGGAUCCACAUCUACGAAUUCGUACCAUAGAGGGUUAUCCGUCACCGAGAUCGGAAGAGCACACGU
B19: target 1 insA 3' of 19,insG 3' of 18 (mixed)
RNA 1: B1 RNA 1
RNA 2: B2 RNA 2 with G35A, A36G, U38A, A39G, G40A, U41G
B20: target 1 insU 3' of 20,insC 3' of 13 (mixed)
RNA 1: B1 RNA 1
RNA 2: B2 RNA 2 with A34U, G35A, A36G, G37A, U38G, U41C
B21: target 1 insC 3' of 18,insG 3' of 16 (mixed)
RNA 1: B1 RNA 1
RNA 2: B2 RNA 2 with G35C, A36G, G37A, U38G, A39G, G40A, U41G
B22: target 1 C7A,G15C (mixed)
RNA 1: B1 RNA 1
RNA 2: B3 RNA 2 with G37C, G45A, U47G
B23: target 1 insA 3' of 5,insU 3' of 4 (mixed)
RNA 1: B1 RNA 1
RNA 2: B6 RNA 2 with G48A, C51U
B24: target 1 insG 3' of 18,insG 3' of 3 (mixed)
RNA 1: B1 RNA 1
RNA 2: B1 RNA 2 with C33U, U34A, A35G, C51G, A52C, C53A
B25: target 1 insG 3' of 14,insC 3' of 12 (mixed)
RNA 1: B1 RNA 1
RNA 2: B2 RNA 2 with U38A, A39G, U41G, G42C
B26: target 1 insC 3' of 15,insG 3' of 6 (mixed)
RNA 1: B1 RNA 1
RNA 2: B2 RNA 2 with U38C, U41G, G42U, U44A, A45U, U46C, C48G
B27: target 1 insA 3' of 17,insC 3' of 12 (mixed)
RNA 1: B1 RNA 1
RNA 2: B2 RNA 2 with G37A, U38G, U41G, G42C
B28: target 1 G12A,U19G (mixed)
RNA 1: B1 RNA 1
RNA 2: B3 RNA 2 with U33G, G40A, G45C, U47G

These binders were tested against T1, EsCas13d, nuclease-dead (assay: crRNA (strand 1, pre-loaded); Mg2+; 40 mM Tris-HCl pH 7.5, 150 mM NaCl, 6 mM MgCl2, 1 mM DTT, 0.1% Tween-20, 0.2 mg/ml BSA; 25 C; 10 min per concentration, then washed). Settings: tags: His6-TwinStrep-SUMO cleaved; N-terminal SNAP kept (SNAP-Surface 488); label: 3' end held by stalled T7 RNA polymerase.

First: B1
Second: B2
The Kd of the first is 2.5-fold lower: 8 ± 0.5 nM for the first, 20 ± 7 nM for the second.

Going from B3 to B4, the Kd rises from 16.8 ± 0.9 nM to 51 ± 5 nM (3-fold).

First: B5
Second: B6
The Kd of the first is 5.8-fold higher: roughly 80 nM for the first, 13.7 ± 0.8 nM for the second.

Going from B7 to B8, the Kd falls from 86 ± 18 nM to 19.3 ± 1.8 nM (4.5-fold). The second binds more tightly here.

Going from B9 to B10, the Kd falls from 11.1 ± 0.5 nM to 3.71 ± 0.17 nM (3-fold). The second binds more tightly here.

Compared with B11, B12 is 3.4-fold higher in Kd: 18.3 ± 0.8 nM for the first, 62 ± 7 nM for the second. The first binds more tightly here.

Compared with B13, B14 is 2-fold higher in Kd: 25.6 ± 2.7 nM for the first, 50 ± 6 nM for the second.

B15 and B16 are within error of each other in Kd: 29.5 ± 2.9 nM for the first, 28.1 ± 3 nM for the second.

First: B17
Second: B18
The Kd of the first is 11-fold lower: 7.9 ± 0.4 nM for the first, 84 ± 32 nM for the second. The first binds more tightly here.

First: B19
Second: B20
The Kd of the first is 3.5-fold higher: 97 ± 30 nM for the first, 28 ± 3 nM for the second.

B21 and B22 are within error of each other in Kd: 70 ± 13 nM for the first, 84 ± 25 nM for the second.

First: B23
Second: B24
The Kd of the first is 4.1-fold lower: 9.8 ± 1 nM for the first, 40 ± 2.7 nM for the second. The first binds more tightly here.

B25 and B26 are within 1.5-fold of each other in Kd: 16.7 ± 0.9 nM for the first, 22.1 ± 0.9 nM for the second.

Going from B27 to B28, the Kd rises from 23 ± 4 nM to 54 ± 15 nM (2.3-fold).
